These results are taken from patent US20250041437A1, “HUMANIZED MUC1 ANTIBODY AND ANTIBODY DRUG CONJUGATE” (Sun Pharma Advanced Research Company Limited, priority 2023, published 2025).

In assay [1] the target is human MUC1 on cells (DA3-TM transfectants and human cancer cell lines SKOV3, COLO357, HT29 and others) (human) (UniProt P15941). Nature of the assay: flow cytometry on DA3-TM cells; table row 2 of 5 from the top, concentration not printed in this figure. For orientation: Flow cytometry measures light scatter and fluorescence of single cells or particles in a stream.
For assay [2] the target is unchanged. The assay is described as follows: flow cytometry on DA3-TM cells; table row 3 of 5 from the top, concentration not printed in this figure.
Assay [3] shares this target. The assay is described as follows: flow cytometry on DA3-TM cells; table row 4 of 5 from the top, concentration not printed in this figure.
For assay [4] the target is unchanged. Nature of the assay: flow cytometry on DA3-TM cells; table row 5 of 5 from the top, concentration not printed in this figure.

Chain of human MUC1 on cells (DA3-TM transfectants and human cancer cell lines SKOV3, COLO357, HT29 and others) (human) (P15941 24-1255 limits assumed): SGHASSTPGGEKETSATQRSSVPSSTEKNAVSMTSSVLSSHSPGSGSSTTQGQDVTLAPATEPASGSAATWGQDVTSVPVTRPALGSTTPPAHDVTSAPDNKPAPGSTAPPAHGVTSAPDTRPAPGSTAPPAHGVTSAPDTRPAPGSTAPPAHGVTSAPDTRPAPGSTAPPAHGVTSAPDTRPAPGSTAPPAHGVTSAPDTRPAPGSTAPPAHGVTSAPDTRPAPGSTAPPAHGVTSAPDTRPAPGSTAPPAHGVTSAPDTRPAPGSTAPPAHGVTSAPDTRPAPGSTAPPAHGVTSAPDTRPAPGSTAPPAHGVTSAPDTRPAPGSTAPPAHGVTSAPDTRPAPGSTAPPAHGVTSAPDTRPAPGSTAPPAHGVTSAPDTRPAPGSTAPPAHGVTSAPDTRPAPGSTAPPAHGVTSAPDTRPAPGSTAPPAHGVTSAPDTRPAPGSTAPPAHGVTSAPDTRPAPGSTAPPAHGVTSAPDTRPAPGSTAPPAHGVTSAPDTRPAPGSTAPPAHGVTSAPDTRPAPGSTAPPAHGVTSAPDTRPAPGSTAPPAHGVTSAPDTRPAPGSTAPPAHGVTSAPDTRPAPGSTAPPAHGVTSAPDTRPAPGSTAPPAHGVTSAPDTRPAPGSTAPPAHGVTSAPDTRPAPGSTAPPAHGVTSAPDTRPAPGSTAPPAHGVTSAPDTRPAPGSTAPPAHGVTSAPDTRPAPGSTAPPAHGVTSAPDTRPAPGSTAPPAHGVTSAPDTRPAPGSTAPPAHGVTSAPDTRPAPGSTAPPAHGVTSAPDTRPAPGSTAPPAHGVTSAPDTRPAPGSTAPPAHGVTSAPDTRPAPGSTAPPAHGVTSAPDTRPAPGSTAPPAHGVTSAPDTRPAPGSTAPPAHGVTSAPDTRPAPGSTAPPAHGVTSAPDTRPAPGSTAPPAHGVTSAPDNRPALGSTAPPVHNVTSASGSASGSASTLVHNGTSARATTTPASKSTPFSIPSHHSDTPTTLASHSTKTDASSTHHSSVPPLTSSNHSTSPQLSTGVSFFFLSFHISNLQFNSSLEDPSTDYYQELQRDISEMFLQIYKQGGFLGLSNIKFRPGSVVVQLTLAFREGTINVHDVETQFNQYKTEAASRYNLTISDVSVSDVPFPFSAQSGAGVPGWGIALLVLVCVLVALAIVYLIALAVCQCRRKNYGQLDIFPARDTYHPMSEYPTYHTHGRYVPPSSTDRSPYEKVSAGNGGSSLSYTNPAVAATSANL

B1: Hu-5F3 (HM1 LM2) (antibody, V domains shown)
VH: EIQLVQSGAEVKKPGSSVKVSCKVTGHSITRGSSWHWMRQAPGQGLEWIGYIHYGGGTSYNPSLKSRATLTVDTSTNTAYMELSSLRSEDTAFYFCARYSYDITYRWFFDVWGQGTLVTVSS
VL: DIQMTQSPSTLSASVGDRVTITCRASQNIGTSIHWYQQKPGKAPKLLIKRASESISGVPSRFSGSGSGTEFTLTISSLQPDDFATYYCQQNNNWPLTFGQGTKVEVK
For the molecule B1, the Geometric Mean : FL6-A worked out at 114 in assay [1], 71.4 in assay [2], 45.3 in assay [3] and 35.9 in assay [4].
